Black lipid bilayer (BLB) channel conductance of B-fractions in 1 M KCl, 20 mV and stoichiometry N data for three substances are collected here from article PMC11790652.

A value given as a limit tells only on which side of the number the result lay.

In assay [1] the target is P66 T176M (site-directed mutant, B. burgdorferi B31 A3) (Borrelia burgdorferi (strain B31 A3)).
Assay [2] shares this target. The assay is described as follows: native gel or EMSA; BN-PAGE of outer membrane proteins (B-fractions) of the B. burgdorferi strains, immunoblot probed with rabbit polyclonal antibody D8713 against P66.
Assay [3] concerns the target P66 G175V (site-directed mutant, B. burgdorferi B31 A3) (Borrelia burgdorferi (strain B31 A3)).
Assay [4] shares this target. Put plainly: native gel or EMSA; BN-PAGE of outer membrane proteins (B-fractions) of the B. burgdorferi strains, immunoblot probed with rabbit polyclonal antibody D8713 against P66. On the technique in general: A gel shift assay detects complexes by their altered migration in electrophoresis.
In assay [5] the target is P66 G584R (site-directed mutant, B. burgdorferi B31 A3) (Borrelia burgdorferi (strain B31 A3)).
The target is the same in assay [6]. Put plainly: native gel or EMSA; BN-PAGE of outer membrane proteins (B-fractions) of the B. burgdorferi strains, immunoblot probed with rabbit polyclonal antibody D8713 against P66.

In assay [1], “P66 T176M (site-directed mutant, B. burgdorferi B31 A3) (natural protein)” showed a black lipid bilayer (BLB) channel conductance of B-fractions in 1 M KCl, 20 mV of less than 5 nS. Further, the stoichiometry N (commonly a count of units in the complex or per binding partner) in assay [2] amounted to 3.

For “P66 G175V (site-directed mutant, B. burgdorferi B31 A3) (natural protein)”, in assay [3], the black lipid bilayer (BLB) channel conductance of B-fractions in 1 M KCl, 20 mV was less than 5 nS. For the same substance, the stoichiometry N in assay [4] was determined as 3.

In the case of “P66 G584R (site-directed mutant, B. burgdorferi B31 A3) (natural protein)”, in assay [5], the black lipid bilayer (BLB) channel conductance of B-fractions in 1 M KCl, 20 mV is less than 5 nS. In addition, the stoichiometry N in assay [6] stood at 3.
